# Assay results from patent US20110243992.
# Tested on: iron co-factored superoxide dismutase (SodA) of M. tuberculosis/BCG, wild type, as produced by BCG
substance,measurement,value
mutant SodA ΔE54 (also contains H28R substitution),"total SOD activity, 3D-BCG (ΔE54 SodA mutant put into DD-BCG) versus DD-BCG",FIG. 16; 16-fold reduction
same,"total SOD activity, ΔE54 SodA mutant in BCG or SIG-BCG","FIGS. 4, 14; 2- to 4-fold reduction"
